Test results from patent US20080058275, “Rna Interferases And Methods Of Use Thereof” (published 2008).

Tests used:
[1] = biological target: (His)6MazE(K7A) (Escherichia coli, UniProt P0AE72 SEQ:1-82, K7A); assay: EMSA; 4 uM; details: tags: N-terminal His6; chain copies: 2; label: 32P
[2] = biological target: (His)6MazE(R16A) (Escherichia coli, UniProt P0AE72 SEQ:1-82, R16A); assay: EMSA; 4 uM; details: tags: N-terminal His6; chain copies: 2; label: 32P
[3] = biological target: (His)6MazE(R8A) (Escherichia coli, UniProt P0AE72 SEQ:1-82, R8A); assay: EMSA; 4 uM; details: tags: N-terminal His6; chain copies: 2; label: 32P
[4] = biological target: (His)6MazE(S12A) (Escherichia coli, UniProt P0AE72 SEQ:1-82, S12A); assay: EMSA; 4 uM; details: tags: N-terminal His6; chain copies: 2; label: 32P
[5] = biological target: MazE-MazF(His)6 complex (Escherichia coli, UniProt P0AE72;P0AE70 SEQ:1-82,SEQ:1-111); assay: EMSA; 1 uM complex; details: tags: C-terminal His6 on MazF; chain copies: MazF2-MazE2-MazF2 (stated); label: 32P
[6] = biological target: (His)6MazE(R48A) (Escherichia coli, UniProt P0AE72 SEQ:1-82, R48A); assay: EMSA; data not shown; details: tags: N-terminal His6; chain copies: 2; label: 32P
[7] = biological target: (His)6MazE(F53A) (Escherichia coli, UniProt P0AE72 SEQ:1-82, F53A); assay: EMSA; data not shown; details: tags: N-terminal His6; chain copies: 2; label: 32P
[8] = biological target: (His)6MazE(E57Q) (Escherichia coli, UniProt P0AE72 SEQ:1-82, E57Q); assay: EMSA; data not shown; details: tags: N-terminal His6; chain copies: 2; label: 32P
[9] = biological target: MazF (Escherichia coli, UniProt P0AE70 SEQ:1-111); assay: EMSA; no binding up to 20 uM; details: tags: untagged; chain copies: 2; label: 32P
[10] = biological target: (His)6MazE-MazF complex (Escherichia coli, UniProt P0AE72;P0AE70 SEQ:1-82,SEQ:1-111); assay: EMSA; shift at 0.2 uM MazE, MazE:MazF 1:2; more than ten-fold enhancement over MazE; details: tags: N-terminal His6 on MazE; chain copies: MazF2-MazE2-MazF2 (stated); label: 32P
[11] = biological target: (His)6MazE (Escherichia coli, UniProt P0AE72 SEQ:1-82); assay: EMSA; discrete shift at 2 uM or higher; smear at 0.4-1.0 uM; 5 mM MgCl2, poly(dI-dC), 4 C; details: tags: N-terminal His6; chain copies: 2 (inferred); label: 32P

B1: mazEF promoter 50-bp (dsDNA)
DNA 1: GCTCGTATCTACAATGTAGATTGATATATACTGTATCTACATATGATAGC
DNA 2: GCTATCATATGTAGATACAGTATATATCAATCTACATTGTAGATACGAGC
[1]
  binding result: no binding
[2]
  binding result: no binding
[3]
  binding result: no binding
[4]
  binding result: no binding
[5]
  binding result: binds
[6]
  binding result: binds
[7]
  binding result: binds
[8]
  binding result: binds
[9]
  binding result: no binding
[10]
  binding result: binds
[11]
  binding result: binds
